Assay results: publication PMC10202812, “Resilience to autosomal dominant Alzheimer’s disease in a Reelin-COLBOS heterozygous man” (Nature Medicine, 2023)

Molecular target: T1, neuropilin 1 (NRP1) (UniProt O14786 22-856, biotinylated at a 1:2 molar ratio)
T1 construct: neuropilin 1 (NRP1), recombinant, R&D Systems catalog no; 3870-N1-025; source: bought: R&D Systems (catalog no. 3870-N1-025)
T1 sequence (looked up): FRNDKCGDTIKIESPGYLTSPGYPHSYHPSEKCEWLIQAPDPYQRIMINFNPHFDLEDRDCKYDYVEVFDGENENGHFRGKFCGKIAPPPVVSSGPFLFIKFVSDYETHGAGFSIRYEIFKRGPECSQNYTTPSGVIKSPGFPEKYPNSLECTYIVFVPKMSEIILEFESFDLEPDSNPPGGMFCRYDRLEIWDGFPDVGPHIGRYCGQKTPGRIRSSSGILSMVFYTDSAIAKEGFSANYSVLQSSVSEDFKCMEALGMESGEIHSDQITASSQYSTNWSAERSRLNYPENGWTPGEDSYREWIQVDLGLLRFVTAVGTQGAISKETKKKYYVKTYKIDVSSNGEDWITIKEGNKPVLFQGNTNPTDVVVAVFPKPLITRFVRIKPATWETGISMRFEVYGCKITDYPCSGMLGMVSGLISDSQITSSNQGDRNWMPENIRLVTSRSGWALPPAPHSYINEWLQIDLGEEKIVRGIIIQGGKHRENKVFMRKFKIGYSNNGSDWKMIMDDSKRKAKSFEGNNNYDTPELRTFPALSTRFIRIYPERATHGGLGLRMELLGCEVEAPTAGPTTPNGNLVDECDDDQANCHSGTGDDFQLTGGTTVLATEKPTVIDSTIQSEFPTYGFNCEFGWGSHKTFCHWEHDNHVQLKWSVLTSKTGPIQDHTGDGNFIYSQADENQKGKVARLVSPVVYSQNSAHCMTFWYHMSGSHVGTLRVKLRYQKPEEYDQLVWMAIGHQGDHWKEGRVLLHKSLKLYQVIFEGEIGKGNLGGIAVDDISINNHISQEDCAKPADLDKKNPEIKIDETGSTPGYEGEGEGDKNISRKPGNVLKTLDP
Assay: BLI; biotinylated NRP1 immobilised on streptavidin biosensor tips (Octet); 30 °C, 1,000 rpm; 240 s association, 300 s dissociation; SD Buffer (PBS, 0.05% Tween 20, 0.01% BSA, pH 7.4); 1:1 binding model, global fitting
Settings: both partners purified

fold affinity against WT CTR-RELN: 10 fold
B1: Fc-fusion CTR-RELN H3447R (CTR-RELN-COLBOS) (Fc fusion, human, UniProt P78509 3429-3460, looked up)
chain: STRKQNYMMNFSRQHGLRRFYNRRRRSLRRYP
notes: Reelin (RELN), C-terminal region, amino acids 3,429-3,460 (numbers of the 3,460-residue human protein), with the natural variant H3447R (COLBOS); source: DNA encoding amino acids 3,429-3,460 of RELN-CTR cloned into the pFUSEN-hG2Fc plasmid (InvivoGen)
